Test results published in the supplement of paper PMC10567573.

B1: INTS3 (parent)
chain: KKREFRFHPIKETVVEEPVDITPY

Variants of: B1
Assay: protein stability index of a GFP-peptide fusion (GPS, HEK-293T) (PSI 1-6); higher = more stable
Conditions: c terminus: a fixed tail appended
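Note: lentivirally expressed fusions sorted by FACS into six bins by GFP to DsRed ratio, PSI derived from sequencing read proportions per bin multiplied by bin number.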

Going from KKREFRFHPIKETVVEENVDITPY [P18N] to KKREFRFHPIKETVVEELVDITPY [P18L], the protein stability index falls from 2.26 to 1.85.

Compared with KKREFRFHPIKETVVEEVVDITPY [P18V], KKREFRFHPIKETVVEEEVDITPY [P18E] is higher in protein stability index: 1.83 for the first, 2.05 for the second.

First: KKREFRFHPIKETVVEEKVDITPY [P18K]
Second: KKREFRFHPIKETVVEEHVDITPY [P18H]
The protein stability index of the first is higher: 2.62 for the first, 1.74 for the second.

Compared with KKREFRFHPIKETVVEEGVDITPY [P18G], KKREFRFHPIKETVVEEFVDITPY [P18F] is higher in protein stability index: 1.79 for the first, 2.72 for the second.

First: KKREFRFHPIKETVVEEDVDITPY [P18D]
Second: KKREFRFHPIKETVVEEMVDITPY [P18M]
The protein stability index of the first is higher: 2.12 for the first, 1.99 for the second.

Compared with KKREFRFHPIKETVVEEQVDITPY [P18Q], KKREFRFHPIKETVVEEYVDITPY [P18Y] is higher in protein stability index: 2.06 for the first, 3.25 for the second.

Compared with KKREFRFHPIKETVVEESVDITPY [P18S], KKREFRFHPIKETVVEETVDITPY [P18T] is lower in protein stability index: 1.79 for the first, 1.36 for the second.

Going from KKREFRFHPIKETVVEEWVDITPY [P18W] to KKREFRFHPIKETVVEERVDITPY [P18R], the protein stability index rises from 2.29 to 2.78.

Going from KKREFRFHPIKETVVEEAVDITPY [P18A] to KKREFRFHPIKETVVEECVDITPY [P18C], the protein stability index falls from 1.87 to 1.86.

Going from KKREFRFHPIKETVVEEIVDITPY [P18I] to KKREFRFHPIKETVVEEPVDVTPY [I21V], the protein stability index rises from 1.64 to 2.63.

Going from KKREFRFHPIKETVVEEPVDCTPY [I21C] to KKREFRFHPIKETVVEEPVDATPY [I21A], the protein stability index falls from 2.01 to 1.76.

Compared with KKREFRFHPIKETVVEEPVDGTPY [I21G], KKREFRFHPIKETVVEEPVDPTPY [I21P] is higher in protein stability index: 1.49 for the first, 2.5 for the second.

Going from KKREFRFHPIKETVVEEPVDQTPY [I21Q] to KKREFRFHPIKETVVEEPVDNTPY [I21N], the protein stability index falls from 2.43 to 2.

Compared with KKREFRFHPIKETVVEEPVDRTPY [I21R], KKREFRFHPIKETVVEEPVDETPY [I21E] is higher in protein stability index: 1.59 for the first, 2.37 for the second.

Going from KKREFRFHPIKETVVEEPVDHTPY [I21H] to KKREFRFHPIKETVVEEPVDTTPY [I21T], the protein stability index rises from 1.59 to 1.95.

Going from KKREFRFHPIKETVVEEPVDWTPY [I21W] to KKREFRFHPIKETVVEEPVDMTPY [I21M], the protein stability index falls from 2.1 to 1.7.

First: KKREFRFHPIKETVVEEPVDKTPY [I21K]
Second: KKREFRFHPIKETVVEEPVDDTPY [I21D]
The protein stability index of the first is lower: 2.02 for the first, 2.37 for the second.

Going from KKREFRFHPIKETVVEEPVDFTPY [I21F] to KKREFRFHPIKETVVEEPVDLTPY [I21L], the protein stability index rises from 1.92 to 2.01.

Compared with KKREFRFHPIKETVVEEPVDSTPY [I21S], KKREFRFHPIKETVVEEPVDYTPY [I21Y] is higher in protein stability index: 1.21 for the first, 1.56 for the second.

Going from KKREFRFHPIKETVVEEPGDITPY [V19G] to KKREFRFHPIKETVVEEPPDITPY [V19P], the protein stability index rises from 1.98 to 2.06.

Compared with KKREFRFHPIKETVVEEPLDITPY [V19L], KKREFRFHPIKETVVEEPNDITPY [V19N] is higher in protein stability index: 1.7 for the first, 2.02 for the second.

Going from KKREFRFHPIKETVVEEPHDITPY [V19H] to KKREFRFHPIKETVVEEPCDITPY [V19C], the protein stability index rises from 1.76 to 2.01.

Going from KKREFRFHPIKETVVEEPFDITPY [V19F] to KKREFRFHPIKETVVEEPWDITPY [V19W], the protein stability index falls from 1.77 to 1.38.

Compared with KKREFRFHPIKETVVEEPADITPY [V19A], KKREFRFHPIKETVVEEPMDITPY [V19M] is lower in protein stability index: 2.67 for the first, 2.23 for the second.

First: KKREFRFHPIKETVVEEPEDITPY [V19E]
Second: KKREFRFHPIKETVVEEPIDITPY [V19I]
The protein stability index of the first is higher: 2.28 for the first, 1.51 for the second.

First: KKREFRFHPIKETVVEEPQDITPY [V19Q]
Second: KKREFRFHPIKETVVEEPRDITPY [V19R]
The protein stability index of the first is lower: 1.8 for the first, 2.37 for the second.

Going from KKREFRFHPIKETVVEEPKDITPY [V19K] to KKREFRFHPIKETVVEEPYDITPY [V19Y], the protein stability index rises from 1.88 to 2.28.

First: KKREFRFHPIKETVVEEPTDITPY [V19T]
Second: KKREFRFHPIKETVVEEPDDITPY [V19D]
The protein stability index of the first is lower: 1.88 for the first, 2.13 for the second.

Going from KKREFRFHPIKETVVEEPSDITPY [V19S] to KKREFRFHPIKETVVEEPVYITPY [D20Y], the protein stability index falls from 2.25 to 2.16.

Compared with KKREFRFHPIKETVVEEPVWITPY [D20W], KKREFRFHPIKETVVEEPVAITPY [D20A] is lower in protein stability index: 1.6 for the first, 1.26 for the second.

Compared with KKREFRFHPIKETVVEEPVCITPY [D20C], KKREFRFHPIKETVVEEPVMITPY [D20M] is higher in protein stability index: 1.61 for the first, 1.96 for the second.

Compared with KKREFRFHPIKETVVEEPVHITPY [D20H], KKREFRFHPIKETVVEEPVGITPY [D20G] is lower in protein stability index: 2.25 for the first, 2.15 for the second.

Going from KKREFRFHPIKETVVEEPVEITPY [D20E] to KKREFRFHPIKETVVEEPVLITPY [D20L], the protein stability index falls from 2.35 to 1.56.

Going from KKREFRFHPIKETVVEEPVVITPY [D20V] to KKREFRFHPIKETVVEEPVIITPY [D20I], the protein stability index rises from 1.65 to 1.7.

Going from KKREFRFHPIKETVVEEPVSITPY [D20S] to KKREFRFHPIKETVVEEPVPITPY [D20P], the protein stability index rises from 1.04 to 1.79.

Compared with KKREFRFHPIKETVVEEPVRITPY [D20R], KKREFRFHPIKETVVEEPVNITPY [D20N] is lower in protein stability index: 2.22 for the first, 2.2 for the second.

First: KKREFRFHPIKETVVEEPVQITPY [D20Q]
Second: KKREFRFHPIKETVVEEPVFITPY [D20F]
The protein stability index of the first is lower: 2.02 for the first, 2.48 for the second.

Going from KKREFRFHPIKETVVEEPVKITPY [D20K] to KKREFRFHPIKETVVEEPVTITPY [D20T], the protein stability index rises from 1.05 to 1.67.

Going from KKREFRFHPIKETVVETPVDITPY [E17T] to KKREFRFHPIKETVVESPVDITPY [E17S], the protein stability index rises from 2.13 to 2.24.

Compared with KKREFRFHPIKETVVERPVDITPY [E17R], KKREFRFHPIKETVVENPVDITPY [E17N] is lower in protein stability index: 2.32 for the first, 2.19 for the second.

First: KKREFRFHPIKETVVEYPVDITPY [E17Y]
Second: KKREFRFHPIKETVVEPPVDITPY [E17P]
The protein stability index of the first is higher: 2.06 for the first, 1.59 for the second.

Compared with KKREFRFHPIKETVVEVPVDITPY [E17V], KKREFRFHPIKETVVEWPVDITPY [E17W] is higher in protein stability index: 2.02 for the first, 2.46 for the second.

First: KKREFRFHPIKETVVEQPVDITPY [E17Q]
Second: KKREFRFHPIKETVVEEPVDIKPY [T22K]
The protein stability index of the first is higher: 2.42 for the first, 1.88 for the second.

Compared with KKREFRFHPIKETVVEEPVDIDPY [T22D], KKREFRFHPIKETVVEEPVDIAPY [T22A] is lower in protein stability index: 2.12 for the first, 1.45 for the second.

First: KKREFRFHPIKETVVEEPVDIEPY [T22E]
Second: KKREFRFHPIKETVVEEPVDIFPY [T22F]
The protein stability index of the first is lower: 1.97 for the first, 2.57 for the second.

Compared with KKREFRFHPIKETVVEEPVDIIPY [T22I], KKREFRFHPIKETVVEEPVDIHPY [T22H] is higher in protein stability index: 1.96 for the first, 2.23 for the second.

Compared with KKREFRFHPIKETVVEEPVDICPY [T22C], KKREFRFHPIKETVVEEPVDIGPY [T22G] is higher in protein stability index: 1.82 for the first, 2.03 for the second.
